Source: US5985836A, “Alpha-1 proteinase inhibitor binding peptides” (Bayer Corporation, priority 1998, dated 1999)
Ends that are not written are not given here.

Legend:
A1PI [1] = target: T1, A1PI (Homo sapiens, UniProt P01009); assay: Capture and elution of active A1PI with 2M urea buffer (elastase inhibition activity assay and immunonephelometry); format: binding
T1 construct: Human plasma is currently the only approved source of therapeutic AlPI

A1PI [2] = target: T1, A1PI; assay: A1PI purification from 5 mg hSA + 1 mg A1PI on peptide column, A1PI mass balance; format: binding; details: A1PI, 5 mg hSA + 1 mg A1PI; for Percent Eluted by Fraction, 1M NaCl / Percent Eluted by Fraction, 2% Ac. Acid / Percent Eluted by Fraction, 3M NaCl / Percent Eluted by Fraction, Flow: relative to total eluted
Method in brief: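 Peptides on A-Totda-Toyopearl resin (0.1 mmole/g) in 0.4×5 cm columns; 5 mg hSA + 1 mg A1PI loaded at 4 °C or 20 °C with 10 min residence (17 μl/min). Steps of 1M and 3M NaCl, then 2% acetic acid; fractions quantified by immunonephelometry for mass balance.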

[3] = target: T2, apolipoprotein alpha-1 (Apo A-1) (Homo sapiens, UniProt P02647); assay: Purification from Effluent II+III, Apo A-1 mass balance; format: binding; details: 1 ml Eff. II+III, 4° C.; for Mass Protein per Eluate Fraction, 2% Acetic Acid: * as in Tables 4, 5 (below detection limit)
T2 construct: Eff; II+III is a process intermediate in the Cohn plasma fractionation process; tissue Bayer Corporation (Clayton, N.C.); host or cells: plasma fraction: Cohn Effluent II+III
Experimental: (§1) Sequences 1-11 and 15 were assayed with Effluent II+III (Eff. II+III). Eff. II+III is a process intermediate in the Cohn plasma fractionation process. The feed stream contains 20% (by volume) ethanol, 20-25 mg/ml hSA and approximately 1 mg/ml AlPI. The stream also contains other proteins including anti-thrombin III (AT3), immunoglobin G (IgG), immunoglobin A (IgA), apolipoprotein alpha-1 (Apo A-1), transferrin (Trf), haptoglobin (Hpt), and alpha-1 acid glycoprotein (AAG) at concentrations ranging from 0.1-1 mg/ml.
(§2) The columns were assayed using the same technique as the hSA+AlPI experiments, allowing for a 10 minute residence time followed by a constant flow rate of 865 μl/min with step elutions of 1M NaCl, 3M NaCl, and 2% acetic acid. All experiments were conducted at 4° C. The mass balances for the injection of 1 ml Eff. […] The AlPI was enriched from 3% of the total protein in the feed to upwards of 50% in the acid eluate.

A1PI [4] = target: T1, A1PI; assay: Purification of A1PI from Effluent II+III on peptide column, A1PI mass balance; format: binding; details: A1PI, 1 ml Eff. II+III, 4° C.
Method in brief: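 Peptide-ligand columns were loaded with 1 ml Cohn Effluent II+III (20% v/v ethanol, 20-25 mg/ml hSA, ~1 mg/ml A1PI, other plasma proteins at 0.1-1 mg/ml) using a 10 min residence time at 4° C. Step elutions at 865 μl/min used 1M NaCl, 3M NaCl, then 2% acetic acid, and protein mass balances were tracked across fractions.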

Immunoglobulin G (IgG) = assay: Purification from Effluent II+III, IgG mass balance; format: binding, human; details: 1 ml Eff. II+III, 4° C.
Experimental: as §1, §2

A1PI [5] = target: T1, A1PI; assay: A1PI binding on peptide-resin column, injection of 1 mg A1PI in equilibration buffer; details: 1 mg A1PI in equilibration buffer; for Percent A1PI Eluted by Fraction Based on Absorbance at 280 nm, 1M NaCl / Percent A1PI Eluted by Fraction Based on Absorbance at 280 nm, 2% Acetic Acid / Percent A1PI Eluted by Fraction Based on Absorbance at 280 nm, Flowthrough: 4° C.; for Percent A1PI Eluted by Fraction, 1M NaCl / Percent A1PI Eluted by Fraction, 2% Acetic Acid / Percent A1PI Eluted by Fraction, Flowthrough: 20° C.
Method in brief: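 Peptides synthesized on A-Totda-Toyopearl chelate resin (0.1 mmole/g) packed in 0.4×5 cm columns; 1 mg A1PI injected in equilibration buffer at 4 °C or 20 °C, 865 or 523 μl/min. Flowthrough, 1M/3M NaCl washes and 2% acetic acid eluate quantified by A280 or immunonephelometry as percent of total eluted.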

A1PI [6] = target: T1, A1PI; assay: A1PI yield from dialyzed (aqueous) Effluent II+III; format: binding; details: 4° C.; for Mass A1PI per Eluate Fraction, 1M NaCl / Mass A1PI per Eluate Fraction, 2% Acetic Acid / Mass A1PI per Eluate Fraction, Flowthrough: 1 ml dialyzed Eff. II+III (ethanol removed); for Percent Eluted by Fraction, 1M NaCl / Percent Eluted by Fraction, 2% Acetic Acid / Percent Eluted by Fraction, Flowthrough: A1PI, 1 ml dialyzed Eff. II+III
Experimental: Effluent II+III was dialyzed against equilibration buffer at 4° C. to remove the ethanol using a 15,000 molecular weight cut-off membrane. Nephelometry of the Eff. […] A portion of the identified sequences were assayed under the same conditions applied for neat Eff. II+III at 4° C. […] II+III compared to the neat, ethanol-containing feed. The binding strength differed for the aqueous feed as more AlPI eluted in 1M NaCl for the aqueous feed. The AlPI eluted in the 1M NaCl fractions was not as enriched as that eluted in the acid eluates.

Immunoglobulin A (IgA) = assay: Purification from Effluent II+III, IgA mass balance; format: binding, human; details: 1 ml Eff. II+III, 4° C.; for Mass Protein per Eluate Fraction, 1M NaCl / Mass Protein per Eluate Fraction, 2% Acetic Acid / Mass Protein per Eluate Fraction, Flow: * as in Tables 4, 5 (below detection limit)
Experimental: as §1, §2

[7] = 20° C., * Below detection limit
[8] = * as in Tables 4, 5 (below detection limit)

T2 sequence (P02647 19-267): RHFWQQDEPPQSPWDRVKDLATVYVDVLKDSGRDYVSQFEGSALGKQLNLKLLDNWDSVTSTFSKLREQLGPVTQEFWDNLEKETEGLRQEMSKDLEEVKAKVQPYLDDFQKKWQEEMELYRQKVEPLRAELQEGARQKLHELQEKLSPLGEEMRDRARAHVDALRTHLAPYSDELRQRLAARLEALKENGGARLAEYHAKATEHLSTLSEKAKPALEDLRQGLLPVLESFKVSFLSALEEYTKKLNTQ
T1 sequence (P01009 25-418): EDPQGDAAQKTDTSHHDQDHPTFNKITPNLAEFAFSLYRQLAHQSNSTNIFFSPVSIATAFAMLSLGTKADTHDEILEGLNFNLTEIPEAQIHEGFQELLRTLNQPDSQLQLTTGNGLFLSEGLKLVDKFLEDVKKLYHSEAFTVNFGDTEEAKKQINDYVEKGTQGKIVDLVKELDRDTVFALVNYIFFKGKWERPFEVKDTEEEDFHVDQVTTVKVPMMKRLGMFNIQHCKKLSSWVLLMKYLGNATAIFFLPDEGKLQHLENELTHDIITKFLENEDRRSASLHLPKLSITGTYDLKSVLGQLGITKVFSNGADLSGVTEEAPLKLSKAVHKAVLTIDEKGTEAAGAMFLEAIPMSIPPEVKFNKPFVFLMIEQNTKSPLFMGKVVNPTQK

## Neat A1PI: freshly dissolved human alpha-1 proteinase inhibitor fed to the columns
A1PI [1]; 1 mg A1PI, 4° C., eluted with 2M urea, pH 6, elastase inhibition activity assay
  Mass A1PI in Urea Eluate (mg), Activity: 0.87 mg
A1PI [1]; 1 mg A1PI, 4° C., eluted with 2M urea, pH 6, immunonephelometry
  Mass A1PI in Urea Eluate (mg), Nephelometry: 1.10 mg
A1PI [1]; activity assay mass relative to immunonephelometry mass
  Specific Activity: 0.79 mg/mg
A1PI [1]; mass of A1PI by activity assay relative to immunonephelometry, urea eluate, 4° C.
  Specific Activity: 0.79 mg/mg

## ARWYIH
A1PI [2]; 4° C., * Below detection limit
  Mass Protein per Eluate Fraction, 1M NaCl: 0.33 mg
  Mass Protein per Eluate Fraction, 2% Ac. Acid: 0.41 mg
  Mass Protein per Eluate Fraction, 3M NaCl: 0.04 mg
A1PI [2]; 4° C.
  Percent Eluted by Fraction, 1M NaCl: 43%
  Percent Eluted by Fraction, 2% Ac. Acid: 53%
  Percent Eluted by Fraction, 3M NaCl: 5%
  Percent Eluted by Fraction, Flow: 0%
A1PI [2]; [7]
  Mass Protein per Eluate Fraction, 1M NaCl: 0.16 mg
  Mass Protein per Eluate Fraction, 2% Ac. Acid: 0.15 mg
  Mass Protein per Eluate Fraction, Flow: 0.67 mg
A1PI [2]; 20° C.
  Percent Eluted by Fraction, 1M NaCl: 16%
  Percent Eluted by Fraction, 2% Ac. Acid: 15%
  Percent Eluted by Fraction, 3M NaCl: 0%
  Percent Eluted by Fraction, Flow: 69%
[3]
  Percent Eluted by Fraction, 1M NaCl: 0%
  Percent Eluted by Fraction, 2% Acetic Acid: 100%
  Percent Eluted by Fraction, 3M NaCl: 0%
  Percent Eluted by Fraction, Flow: 0%
  Mass Protein per Eluate Fraction, 2% Acetic Acid: 0.29 mg
A1PI [4]
  Percent Eluted by Fraction, 1M NaCl: 7%
  Percent Eluted by Fraction, 2% Acetic Acid: 75%
  Percent Eluted by Fraction, 3M NaCl: 0%
  Percent Eluted by Fraction, Flow: 18%
A1PI [4]; [8]
  Mass Protein per Eluate Fraction, 1M NaCl: 0.08 mg
  Mass Protein per Eluate Fraction, 2% Acetic Acid: 0.81 mg
  Mass Protein per Eluate Fraction, Flow: 0.20 mg
Immunoglobulin G (IgG)
  Percent Eluted by Fraction, 1M NaCl: 0%
  Percent Eluted by Fraction, 2% Acetic Acid: 7%
  Percent Eluted by Fraction, 3M NaCl: 0%
  Percent Eluted by Fraction, Flow: 93%
Immunoglobulin G (IgG); [8]
  Mass Protein per Eluate Fraction, 2% Acetic Acid: 0.02 mg
  Mass Protein per Eluate Fraction, Flow: 0.23 mg
A1PI [5]
  Percent A1PI Eluted by Fraction Based on Absorbance at 280 nm, 1M NaCl: 55%
  Percent A1PI Eluted by Fraction Based on Absorbance at 280 nm, 2% Acetic Acid: 45%
  Percent A1PI Eluted by Fraction Based on Absorbance at 280 nm, Flowthrough: 0%
  Percent A1PI Eluted by Fraction, 1M NaCl: 84%
  Percent A1PI Eluted by Fraction, 2% Acetic Acid: 16%
  Percent A1PI Eluted by Fraction, Flowthrough: 0%
A1PI [6]
  Mass A1PI per Eluate Fraction, 1M NaCl: 0.18 mg
  Mass A1PI per Eluate Fraction, 2% Acetic Acid: 0.20 mg
  Mass A1PI per Eluate Fraction, Flowthrough: 0.24 mg
  Percent Eluted by Fraction, 1M NaCl: 30%
  Percent Eluted by Fraction, 2% Acetic Acid: 32%
  Percent Eluted by Fraction, Flowthrough: 39%
Immunoglobulin A (IgA)
  Percent Eluted by Fraction, 1M NaCl: 18%
  Percent Eluted by Fraction, 2% Acetic Acid: 56%
  Percent Eluted by Fraction, 3M NaCl: 0%
  Percent Eluted by Fraction, Flow: 25%
  Mass Protein per Eluate Fraction, 1M NaCl: 0.07 mg
  Mass Protein per Eluate Fraction, 2% Acetic Acid: 0.21 mg
  Mass Protein per Eluate Fraction, Flow: 0.09 mg

## IIWLYK
A1PI [2]; 4° C., * Below detection limit
  Mass Protein per Eluate Fraction, 1M NaCl: 0.10 mg
  Mass Protein per Eluate Fraction, 2% Ac. Acid: 0.18 mg
  Mass Protein per Eluate Fraction, Flow: 0.52 mg
A1PI [2]; 4° C.
  Percent Eluted by Fraction, 1M NaCl: 13%
  Percent Eluted by Fraction, 2% Ac. Acid: 23%
  Percent Eluted by Fraction, 3M NaCl: 0%
  Percent Eluted by Fraction, Flow: 65%
A1PI [2]; [7]
  Mass Protein per Eluate Fraction, 1M NaCl: 0.07 mg
  Mass Protein per Eluate Fraction, 2% Ac. Acid: 0.47 mg
  Mass Protein per Eluate Fraction, Flow: 0.26 mg
A1PI [2]; 20° C.
  Percent Eluted by Fraction, 1M NaCl: 9%
  Percent Eluted by Fraction, 2% Ac. Acid: 58%
  Percent Eluted by Fraction, 3M NaCl: 0%
  Percent Eluted by Fraction, Flow: 33%
[3]
  Percent Eluted by Fraction, 1M NaCl: 0%
  Percent Eluted by Fraction, 2% Acetic Acid: 100%
  Percent Eluted by Fraction, 3M NaCl: 0%
  Percent Eluted by Fraction, Flow: 0%
  Mass Protein per Eluate Fraction, 2% Acetic Acid: 0.43 mg
A1PI [4]
  Percent Eluted by Fraction, 1M NaCl: 0%
  Percent Eluted by Fraction, 2% Acetic Acid: 79%
  Percent Eluted by Fraction, 3M NaCl: 0%
  Percent Eluted by Fraction, Flow: 21%
A1PI [4]; [8]
  Mass Protein per Eluate Fraction, 2% Acetic Acid: 0.50 mg
  Mass Protein per Eluate Fraction, Flow: 0.13 mg
Immunoglobulin G (IgG)
  Percent Eluted by Fraction, 1M NaCl: 9%
  Percent Eluted by Fraction, 2% Acetic Acid: 0%
  Percent Eluted by Fraction, 3M NaCl: 0%
  Percent Eluted by Fraction, Flow: 91%
Immunoglobulin G (IgG); [8]
  Mass Protein per Eluate Fraction, 1M NaCl: 0.02 mg
  Mass Protein per Eluate Fraction, Flow: 0.23 mg
A1PI [5]
  Percent A1PI Eluted by Fraction Based on Absorbance at 280 nm, 1M NaCl: 52%
  Percent A1PI Eluted by Fraction Based on Absorbance at 280 nm, 2% Acetic Acid: 48%
  Percent A1PI Eluted by Fraction Based on Absorbance at 280 nm, Flowthrough: 0%
  Percent A1PI Eluted by Fraction, 1M NaCl: 17%
  Percent A1PI Eluted by Fraction, 2% Acetic Acid: 55%
  Percent A1PI Eluted by Fraction, Flowthrough: 28%
A1PI [6]
  Mass A1PI per Eluate Fraction, 1M NaCl: 0.05 mg
  Mass A1PI per Eluate Fraction, 2% Acetic Acid: 0.38 mg
  Mass A1PI per Eluate Fraction, Flowthrough: 0.19 mg
  Percent Eluted by Fraction, 1M NaCl: 9%
  Percent Eluted by Fraction, 2% Acetic Acid: 60%
  Percent Eluted by Fraction, Flowthrough: 31%
Immunoglobulin A (IgA)
  Percent Eluted by Fraction, 1M NaCl: 34%
  Percent Eluted by Fraction, 2% Acetic Acid: 49%
  Percent Eluted by Fraction, 3M NaCl: 0%
  Percent Eluted by Fraction, Flow: 17%
  Mass Protein per Eluate Fraction, 1M NaCl: 0.12 mg
  Mass Protein per Eluate Fraction, 2% Acetic Acid: 0.17 mg
  Mass Protein per Eluate Fraction, Flow: 0.06 mg
